# In IntAct's records for PubMed 25910212:
# B1: Basal cell adhesion molecule (Homo sapiens), P50895 (parent)
# chain: MEPPDAPAQARGAPRLLLLAVLLAAHPDAQAEVRLSVPPLVEVMRGKSVILDCTPTGTHDHYMLEWFLTDRSGARPRLASAEMQGSELQVTMHDTRGRSPPYQLDSQGRLVLAEAQVGDERDYVCVVRAGAAGTAEATARLNVFAKPEATEVSPNKGTLSVMEDSAQEIATCNSRNGNPAPKITWYRNGQRLEVPVEMNPEGYMTSRTVREASGLLSLTSTLYLRLRKDDRDASFHCAAHYSLPEGRHGRLDSPTFHLTLHYPTEHVQFWVGSPSTPAGWVREGDTVQLLCRGDGSPSPEYTLFRLQDEQEEVLNVNLEGNLTLEGVTRGQSGTYGCRVEDYDAADDVQLSKTLELRVAYLDPLELSEGKVLSLPLNSSAVVNCSVHGLPTPALRWTKDSTPLGDGPMLSLSSITFDSNGTYVCEASLPTVPVLSRTQNFTLLVQGSPELKTAEIEPKADGSWREGDEVTLICSARGHPDPKLSWSQLGGSPAEPIPGRQGWVSSSLTLKVTSALSRDGISCEASNPHGNKRHVFHFGTVSPQTSQAGVAVMAVAVSVGLLLLVVAVFYCVRRKGGPCCRQRREKGAPPPGEPGLSHSGSEQPEQTGLLMGGASGGARGGSGGFGDEC
# partner: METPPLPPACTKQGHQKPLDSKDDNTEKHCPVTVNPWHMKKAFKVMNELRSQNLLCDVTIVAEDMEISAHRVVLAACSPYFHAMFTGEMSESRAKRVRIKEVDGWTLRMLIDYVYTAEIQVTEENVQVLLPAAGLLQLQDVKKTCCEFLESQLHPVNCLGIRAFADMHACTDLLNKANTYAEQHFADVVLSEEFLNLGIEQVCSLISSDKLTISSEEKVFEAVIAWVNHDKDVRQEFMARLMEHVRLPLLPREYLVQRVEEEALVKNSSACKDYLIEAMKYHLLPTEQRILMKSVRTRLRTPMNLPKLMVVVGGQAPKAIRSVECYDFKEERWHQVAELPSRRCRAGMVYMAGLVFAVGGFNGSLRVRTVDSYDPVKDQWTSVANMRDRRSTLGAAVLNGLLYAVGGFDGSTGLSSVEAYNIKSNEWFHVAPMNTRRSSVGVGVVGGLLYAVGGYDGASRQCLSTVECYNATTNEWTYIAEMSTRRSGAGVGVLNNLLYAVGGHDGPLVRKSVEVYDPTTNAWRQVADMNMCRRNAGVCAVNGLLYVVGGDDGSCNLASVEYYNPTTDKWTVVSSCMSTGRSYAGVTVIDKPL
# B2: F-box only protein 7 (Homo sapiens), Q9Y3I1 (parent)
# chain: MRLRVRLLKRTWPLEVPETEPTLGHLRSHLRQSLLCTWGYSSNTRFTITLNYKDPLTGDEETLASYGIVSGDLICLILQDDIPAPNIPSSTDSEHSSLQNNEQPSLATSSNQTSMQDEQPSDSFQGQAAQSGVWNDDSMLGPSQNFEAESIQDNAHMAEGTGFYPSEPMLCSESVEGQVPHSLETLYQSADCSDANDALIVLIHLLMLESGYIPQGTEAKALSMPEKWKLSGVYKLQYMHPLCEGSSATLTCVPLGNLIVVNATLKINNEIRSVKRLQLLPESFICKEKLGENVANIYKDLQKLSRLFKDQLVYPLLAFTRQALNLPDVFGLVVLPLELKLRIFRLLDVRSVLSLSAVCRDLFTASNDPLLWRFLYLRDFRDNTVRVQDTDWKELYRKRHIQRKESPKGRFVMLLPSSTHTIPFYPNPLHPRPFPSSRLPPGIIGGEYDQRPTLPYVGDPISSLIPGPGETPSQFPPLRPRFDPVGPLPGPNPILPGRGGPNDRFPFRPSRGRPTDGRLSFM
# B3: Serotonin N-acetyltransferase (Homo sapiens), Q16613 (parent)
# chain: MSTQSTHPLKPEAPRLPPGIPESPSCQRRHTLPASEFRCLTPEDAVSAFEIEREAFISVLGVCPLYLDEIRHFLTLCPELSLGWFEEGCLVAFIIGSLWDKERLMQESLTLHRSGGHIAHLHVLAVHRAFRQQGRGPILLWRYLHHLGSQPAVRRAALMCEDALVPFYERFSFHAVGPCAITVGSLTFMELHCSLRGHPFLRRNSGC
# B4: E3 ubiquitin-protein ligase Midline-1 (Homo sapiens), O15344 (parent)
# chain: METLESELTCPICLELFEDPLLLPCAHSLCFNCAHRILVSHCATNESVESITAFQCPTCRHVITLSQRGLDGLKRNVTLQNIIDRFQKASVSGPNSPSETRRERAFDANTMTSAEKVLCQFCDQDPAQDAVKTCVTCEVSYCDECLKATHPNKKPFTGHRLIEPIPDSHIRGLMCLEHEDEKVNMYCVTDDQLICALCKLVGRHRDHQVAALSERYDKLKQNLESNLTNLIKRNTELETLLAKLIQTCQHVEVNASRQEAKLTEECDLLIEIIQQRRQIIGTKIKEGKVMRLRKLAQQIANCKQCIERSASLISQAEHSLKENDHARFLQTAKNITERVSMATASSQVLIPEINLNDTFDTFALDFSREKKLLECLDYLTAPNPPTIREELCTASYDTITVHWTSDDEFSVVSYELQYTIFTGQANVVSLCNSADSWMIVPNIKQNHYTVHGLQSGTKYIFMVKAINQAGSRSSEPGKLKTNSQPFKLDPKSAHRKLKVSHDNLTVERDESSSKKSHTPERFTSQGSYGVAGNVFIDSGRHYWEVVISGSTWYAIGLAYKSAPKHEWIGKNSASWALCRCNNNWVVRHNSKEIPIEPAPHLRRVGILLDYDNGSIAFYDALNSIHLYTFDVAFAQPVCPTFTVWNKCLTIITGLPIPDHLDCTEQLP
# partner: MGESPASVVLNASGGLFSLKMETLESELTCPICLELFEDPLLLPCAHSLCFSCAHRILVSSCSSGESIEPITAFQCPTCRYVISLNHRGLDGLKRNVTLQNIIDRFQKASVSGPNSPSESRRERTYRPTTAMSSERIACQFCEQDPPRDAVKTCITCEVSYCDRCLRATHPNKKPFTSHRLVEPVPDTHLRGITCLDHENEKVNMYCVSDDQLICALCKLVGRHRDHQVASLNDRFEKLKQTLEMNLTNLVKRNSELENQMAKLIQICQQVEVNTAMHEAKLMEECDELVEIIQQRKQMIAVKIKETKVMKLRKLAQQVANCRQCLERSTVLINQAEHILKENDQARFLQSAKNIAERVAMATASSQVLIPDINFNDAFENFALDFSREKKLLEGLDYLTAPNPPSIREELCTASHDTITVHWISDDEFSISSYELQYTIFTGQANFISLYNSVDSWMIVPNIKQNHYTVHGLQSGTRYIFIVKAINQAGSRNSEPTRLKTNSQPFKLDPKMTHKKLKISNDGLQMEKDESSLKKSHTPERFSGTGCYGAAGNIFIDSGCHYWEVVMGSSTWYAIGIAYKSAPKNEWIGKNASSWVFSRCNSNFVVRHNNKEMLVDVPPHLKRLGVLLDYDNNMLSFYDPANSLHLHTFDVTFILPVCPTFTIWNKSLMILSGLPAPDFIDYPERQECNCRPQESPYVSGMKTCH
# Variants of: B1
# Settings: with klhl2_human KLHL2, O95198
row,effect of a mutation on the interaction,Variant
1,with no effect,S447L
2,with no effect,T539A
3,with no effect,R77H

# Variants of: B2
# Settings: with psa3_human PSMA3, P25788
# Sequence of psa3_human PSMA3, P25788 (P25788 whole entry): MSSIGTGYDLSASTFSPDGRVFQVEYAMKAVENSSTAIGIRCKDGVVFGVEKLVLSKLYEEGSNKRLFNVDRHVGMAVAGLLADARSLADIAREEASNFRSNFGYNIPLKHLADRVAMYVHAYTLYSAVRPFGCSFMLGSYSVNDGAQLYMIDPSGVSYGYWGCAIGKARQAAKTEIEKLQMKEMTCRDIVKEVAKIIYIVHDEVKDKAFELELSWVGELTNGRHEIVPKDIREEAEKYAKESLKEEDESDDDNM
row,effect of a mutation on the interaction,Variant
1,disrupting interaction strength,T22M

# Variants of: B3
# Settings: with bhe40_human BHLHE40, O14503
# Sequence of bhe40_human BHLHE40, O14503 (O14503 whole entry): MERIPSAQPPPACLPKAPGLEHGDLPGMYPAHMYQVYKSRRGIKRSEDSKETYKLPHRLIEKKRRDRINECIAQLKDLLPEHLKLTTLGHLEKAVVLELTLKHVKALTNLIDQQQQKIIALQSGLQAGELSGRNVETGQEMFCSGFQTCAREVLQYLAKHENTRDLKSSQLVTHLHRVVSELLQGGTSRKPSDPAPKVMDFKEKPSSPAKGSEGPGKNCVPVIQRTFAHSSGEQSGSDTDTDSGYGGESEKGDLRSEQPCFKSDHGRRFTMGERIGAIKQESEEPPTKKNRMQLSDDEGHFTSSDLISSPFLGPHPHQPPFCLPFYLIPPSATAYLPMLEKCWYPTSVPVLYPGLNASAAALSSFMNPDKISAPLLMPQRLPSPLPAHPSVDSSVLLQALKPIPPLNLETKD
row,effect of a mutation on the interaction,Variant
1,with no effect,T3M
2,disrupting interaction strength,A129T

# Variants of: B3
# Settings: with mdfi_human MDFI
row,effect of a mutation on the interaction,Variant
1,with no effect,T3M
2,with no effect,A129T

# Variants of: B4
# Settings: with MID2, Q9UJV3-2
row,effect of a mutation on the interaction,Variant
1,with no effect,P151L
2,with no effect,K370E
3,with no effect,L626P
